Data on 2 molecules can be found in paper doi:10.1101/2020.08.07.234443 (bioRxiv, 2020).

The target in one data set is T1, eIF4G1_(1-249) (S. cerevisiae, UniProt P39935 1-249).
T1 sequence (looked up): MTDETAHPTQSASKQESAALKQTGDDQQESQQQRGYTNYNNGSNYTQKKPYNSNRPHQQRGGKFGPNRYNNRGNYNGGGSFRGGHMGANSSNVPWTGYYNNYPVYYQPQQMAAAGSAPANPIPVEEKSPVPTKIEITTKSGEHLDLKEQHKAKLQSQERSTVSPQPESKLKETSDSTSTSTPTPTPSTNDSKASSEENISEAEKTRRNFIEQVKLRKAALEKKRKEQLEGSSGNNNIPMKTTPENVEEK
The data set can be described thus: NMR intermolecular paramagnetic relaxation enhancement.

The data set “SAXS” concerns the molecule itself. The data set can be described thus: SAXS.

B1: spin-labeled eIF4G1_(1-249) Q109C (domain or fragment, S. cerevisiae, UniProt P39935 1-249, looked up)
chain: MTDETAHPTQSASKQESAALKQTGDDQQESQQQRGYTNYNNGSNYTQKKPYNSNRPHQQRGGKFGPNRYNNRGNYNGGGSFRGGHMGANSSNVPWTGYYNNYPVYYQPCQMAAAGSAPANPIPVEEKSPVPTKIEITTKSGEHLDLKEQHKAKLQSQERSTVSPQPESKLKETSDSTSTSTPTPTPSTNDSKASSEENISEAEKTRRNFIEQVKLRKAALEKKRKEQLEGSSGNNNIPMKTTPENVEEK
modifications: 4-(2-iodoacetamido)-TEMPO nitroxyl spin label on C109
As to B1, the binding result in the data set with eIF4G1_(1-249) is on record as “binds”.

B2: Pab1 RRM12 (domain or fragment)
chain: not shown
For B2, the stoichiometry N (in general, the number of molecules, sites or subunits per partner or assembly) in “SAXS” is 2.
